Test results reported in patent publication US10660972B2, “Methods for coupling targeting peptides onto recombinant lysosomal enzymes for improved treatments of lysosomal storage diseases” (AMICUS THERAPEUTICS, INC., priority 2011, dated 2020).

Columns and labels:
[1] = molecular target: IGF-2/CI-MPR (Homo sapiens, UniProt P11717); conditions: ligand affinity for IGF-2/CI-MPR; read-out: Binding Affinity (Apparent Kd; nM); cited from earlier work
[2] = tested on: lysosomal enzyme activity (rhGAA, I2S); experiment: Enzyme activity of lysosomal enzyme after conjugation or deglycosylation; assay type: biochemical, human; conditions: after conjugation of variant IGF2 peptide (data not shown)
From the text: The high-mannose type N-glycans on rhGAA is problematic because it is believed that these carbohydrates cause the protein to be rapidly cleared from the circulation via macrophage and splenic mannose receptors. […] Deglycosylation of rhGAA can be performed after the enzyme is modified with S-Hynic and purified (via size exclusion chromatography or dialysis to remove excess crosslinker). This strategy allows for complete deglycosylation of rhGAA over 1-5 days using EndoF or EndoH without affecting enzyme activity. The deglycosylated hydrazide-modified rhGAA is then conjugated to PEG4-benzaldehyde-modified IGF-2 peptides. Alternatively, rhGAA deglycosylation can be performed concurrently during the conjugation of PEG4-benzaldehyde-modified IGF-2 peptide to hydrazide-modified rhGAA using high concentrations of EndoF or EndoH. Deglycosylated, IGF2 peptide-conjugated rhGAA is then purified by gel filtration chromatography or dialysis to remove excess phosphine-modified IGF-2 peptides and stored in acidic pH buffer (50 mM sodium phosphate, pH 6.2/100 mM NaCl/0.05% Polysorbate-80). […]
To assess the functional effects of IGF2 peptide for the cellular uptake of exogenous lysosomal enzymes, the internalization of IGF2-conjugated rbGAA (vIGF2-rhGAA) was evaluated in L6 rat skeletal muscle myoblasts. […]

[3] = tested on: Fabry disease; conditions: 1 mg/kg body weight every other week; cited from earlier work

IGF-2/CI-MPR, sequence (P11717 41-2491): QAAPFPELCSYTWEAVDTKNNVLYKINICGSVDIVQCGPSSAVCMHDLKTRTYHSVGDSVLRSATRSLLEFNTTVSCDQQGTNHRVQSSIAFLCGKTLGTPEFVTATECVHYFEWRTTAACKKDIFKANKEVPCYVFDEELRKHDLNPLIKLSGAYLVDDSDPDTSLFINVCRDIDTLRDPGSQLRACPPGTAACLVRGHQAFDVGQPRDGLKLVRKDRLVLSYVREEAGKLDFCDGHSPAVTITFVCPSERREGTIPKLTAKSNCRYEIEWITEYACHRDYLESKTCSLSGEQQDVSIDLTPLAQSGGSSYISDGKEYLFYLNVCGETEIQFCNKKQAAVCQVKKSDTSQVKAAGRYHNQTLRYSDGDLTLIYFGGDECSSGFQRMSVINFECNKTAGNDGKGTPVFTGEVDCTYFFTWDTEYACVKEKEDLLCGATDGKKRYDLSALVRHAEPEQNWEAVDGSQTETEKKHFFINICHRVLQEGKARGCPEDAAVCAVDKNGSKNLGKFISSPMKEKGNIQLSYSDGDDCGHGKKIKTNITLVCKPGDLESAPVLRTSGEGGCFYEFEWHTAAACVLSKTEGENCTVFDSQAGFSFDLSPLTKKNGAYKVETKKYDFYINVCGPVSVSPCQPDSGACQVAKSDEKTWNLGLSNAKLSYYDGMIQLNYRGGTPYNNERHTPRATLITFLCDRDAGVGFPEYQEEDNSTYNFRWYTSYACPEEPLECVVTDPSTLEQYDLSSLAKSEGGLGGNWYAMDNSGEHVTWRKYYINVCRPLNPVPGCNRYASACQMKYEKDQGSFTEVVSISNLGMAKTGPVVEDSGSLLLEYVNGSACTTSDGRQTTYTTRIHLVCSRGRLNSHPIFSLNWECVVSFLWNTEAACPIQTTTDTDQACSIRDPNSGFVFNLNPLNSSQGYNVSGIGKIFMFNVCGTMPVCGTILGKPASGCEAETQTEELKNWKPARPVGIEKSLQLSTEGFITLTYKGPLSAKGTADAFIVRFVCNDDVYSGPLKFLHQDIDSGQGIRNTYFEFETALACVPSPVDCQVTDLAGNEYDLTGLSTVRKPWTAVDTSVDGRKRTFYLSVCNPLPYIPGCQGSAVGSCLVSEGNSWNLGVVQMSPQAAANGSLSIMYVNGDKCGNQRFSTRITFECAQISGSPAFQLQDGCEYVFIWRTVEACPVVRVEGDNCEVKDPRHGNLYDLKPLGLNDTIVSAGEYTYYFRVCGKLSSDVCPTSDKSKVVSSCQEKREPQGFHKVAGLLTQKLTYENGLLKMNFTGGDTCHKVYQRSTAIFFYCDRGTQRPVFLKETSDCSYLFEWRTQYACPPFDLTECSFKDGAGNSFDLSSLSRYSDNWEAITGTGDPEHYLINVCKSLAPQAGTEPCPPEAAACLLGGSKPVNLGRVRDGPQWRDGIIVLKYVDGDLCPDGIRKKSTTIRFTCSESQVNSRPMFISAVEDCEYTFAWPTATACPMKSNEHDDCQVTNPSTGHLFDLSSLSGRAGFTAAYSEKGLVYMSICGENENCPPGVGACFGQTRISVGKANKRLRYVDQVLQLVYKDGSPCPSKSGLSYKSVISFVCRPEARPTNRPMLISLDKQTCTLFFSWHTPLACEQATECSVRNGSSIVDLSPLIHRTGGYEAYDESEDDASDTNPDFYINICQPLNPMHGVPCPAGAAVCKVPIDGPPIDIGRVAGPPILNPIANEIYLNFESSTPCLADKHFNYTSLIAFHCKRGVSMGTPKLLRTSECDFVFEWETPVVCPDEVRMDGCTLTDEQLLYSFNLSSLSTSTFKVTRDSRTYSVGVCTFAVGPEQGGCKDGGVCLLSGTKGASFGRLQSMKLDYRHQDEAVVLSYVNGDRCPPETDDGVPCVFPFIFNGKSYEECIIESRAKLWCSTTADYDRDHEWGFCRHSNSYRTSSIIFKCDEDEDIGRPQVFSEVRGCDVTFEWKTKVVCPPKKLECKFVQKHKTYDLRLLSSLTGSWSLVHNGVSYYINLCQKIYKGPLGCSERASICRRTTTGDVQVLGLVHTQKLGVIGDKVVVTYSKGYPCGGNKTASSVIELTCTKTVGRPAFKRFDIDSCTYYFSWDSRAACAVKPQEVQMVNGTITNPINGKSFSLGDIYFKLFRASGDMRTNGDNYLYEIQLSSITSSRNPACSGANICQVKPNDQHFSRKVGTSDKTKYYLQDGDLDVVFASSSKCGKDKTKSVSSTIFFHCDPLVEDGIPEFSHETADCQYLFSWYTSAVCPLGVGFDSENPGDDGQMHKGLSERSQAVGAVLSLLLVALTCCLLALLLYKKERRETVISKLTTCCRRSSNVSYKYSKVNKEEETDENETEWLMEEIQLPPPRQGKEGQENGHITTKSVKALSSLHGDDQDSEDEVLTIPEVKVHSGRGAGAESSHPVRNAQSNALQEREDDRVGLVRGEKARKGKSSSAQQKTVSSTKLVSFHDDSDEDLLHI

B1: beta-galactosidase: lysosomal enzyme listed as ligand of IGF-2/CI-MPR (protein, UniProt P16278 29-677, looked up)
Beta-galactosidase: QRMFEIDYSRDSFLKDGQPFRYISGSIHYSRVPRFYWKDRLLKMKMAGLNAIQTYVPWNFHEPWPGQYQFSEDHDVEYFLRLAHELGLLVILRPGPYICAEWEMGGLPAWLLEKESILLRSSDPDYLAAVDKWLGVLLPKMKPLLYQNGGPVITVQVENEYGSYFACDFDYLRFLQKRFRHHLGDDVVLFTTDGAHKTFLKCGALQGLYTTVDFGTGSNITDAFLSQRKCEPKGPLINSEFYTGWLDHWGQPHSTIKTEAVASSLYDILARGASVNLYMFIGGTNFAYWNGANSPYAAQPTSYDYDAPLSEAGDLTEKYFALRNIIQKFEKVPEGPIPPSTPKFAYGKVTLEKLKTVGAALDILCPSGPIKSLYPLTFIQVKQHYGFVLYRTTLPQDCSNPAPLSSPLNGVHDRAYVAVDGIPQGVLERNNVITLNITGKAGATLDLLVENMGRVNYGAYINDFKGLVSNLTLSSNILTDWTIFPLDTEDAVRSHLGGWGHRDSGHHDEAWAHNSSNYTLPAFYMGNFSIPSGIPDLPQDTFIQFPGWTKGQVWINGFNLGRYWPARGPQLTLFVPQHILMTSAPNTITVLELEWAPCSSDDPELCAVTFVDRPVIGSSVTYDHPSKPVEKRLMPPPPQKNKDSWLDHV
Kd [1]: 20 nM

B2: I2S: Recombinant human acid iduronidate 2-sulfatase (protein, UniProt P22304 34-455; P22304 456-550, looked up)
Iduronate 2-sulfatase 42 kDa …: TDALNVLLIIVDDLRPSLGCYGDKLVRSPNIDQLASHSLLFQNAFAQQAVCAPSRVSFLTGRRPDTTRLYDFNSYWRVHAGNFSTIPQYFKENGYVTMSVGKVFHPGISSNHTDDSPYSWSFPPYHPSSEKYENTKTCRGPDGELHANLLCPVDVLDVPEGTLPDKQSTEQAIQLLEKMKTSASPFFLAVGYHKPHIPFRYPKEFQKLYPLENITLAPDPEVPDGLPPVAYNPWMDIRQREDVQALNISVPYGPIPVDFQRKIRQSYFASVSYLDTQVGRLLSALDDLQLANSTIIAFTSDHGWALGEHGEWAKYSNFDVATHVPLIFYVPGRTASLPEAGEKLFPYLDPFDSASQLMEPGRQSMDLVELVSLFPTLAGLAGLQVPPRCPVPSFHVELCREGKNLLKHFRFRDLEEDPYLPG
Iduronate 2-sulfatase 14 kDa …: NPRELIAYSQYPRPSDIPQWNSDKPSLKDIKIMGYSIRTIDYRYTVWVGFNPDEFLANFSDIHAGELYFVDSDPLQDHNMYNDSQGGDLFQLLMP
effect of chemical conjugation of variant IGF2 peptide on enzyme activity [2]: did not affect enzyme activity

B3: Fabrazyme: recombinant acid α-galactosidase A; Genzyme Corp. (protein, UniProt P06280 32-429, looked up)
Alpha-galactosidase A: LDNGLARTPTMGWLHWERFMCNLDCQEEPDSCISEKLFMEMAELMVSEGWKDAGYEYLCIDDCWMAPQRDSEGRLQADPQRFPHGIRQLANYVHSKGLKLGIYADVGNKTCAGFPGSFGYYDIDAQTFADWGVDLLKFDGCYCDSLENLADGYKHMSLALNRTGRSIVYSCEWPLYMWPFQKPNYTEIRQYCNHWRNFADIDDSWKSIKSILDWTSFNQERIVDVAGPGGWNDPDMLVIGNFGLSWNQQVTQMALWAIMAAPLFMSNDLRHISPQAKALLQDKDVIAINQDPLGKQGYQLRQGDNFEVWERPLSGLAWAVAMINRQEIGGPRSYTIAVASLGKGVACNPACFITQLLPVKRKLGFYEWTSRLRSHINPTGTVLLQLENTMQMSLKDLL
clinical effectiveness in Fabry disease [3]: sufficient to clear accumulated substrate from endothelial cells
